Assay results reported in patent US20260258115A1 (MAPP BIOPHARMACEUTICAL, published 2026).
Numbering of substitutions follows the chain as printed.

B1: ADI-25524 (antibody, V domains shown)
VH: EVQLLESGGGLVKPGGSLRLSCAASGFTFSSYSMNWVRQAPGKGLEWVSSISSSSSYIYYADSVKGRFTISRDNAKNSLYLQMNSLRAEDTAVYYCAREWSPIVVVTNAFDIWGQGTMVTVSS
VL: QSVLTQPPSVSGAPGQRVTISCTGSSSNIGAGYDVHWYQQLPGTAPKLLIYGNSNRPSGVPDRFSGSKSGTSASLAITGLQAEDEADYYCQSYDSSLSGWVFGGGTKVTVL
notes: full-length IgG
B2: ADI-14333 (antibody, V domains shown)
VH: EVQLVETGGGLVKPGGSLRLSCADSGFPFSSYSMHWVRQAPGKGLEWVASISSSSSFINYADSVKGRFTISRDNAKNSLYLQMNSLRAEDTAVYFCAREAACGGDCYGYYFDYWGQGTLVTVSS
VL: B1 VL with L4V, V10A, L48V, Y51S, D62A, W100S, K107Q, V108L
notes: full-length IgG; also called Ab 1
B3: ADI-14367 (antibody, V domains shown)
VH: EVQLLESGGGLVQPGGSLRLSCAASGFTFGSYDMNWVRQAPGKGLEWVSGISGSGDATYYADSVKGRFTISRDNSKNMLYLQMNSLSAEDMAVYYCARDRAFTMKYNSNWYKIYWGQGTMVTVSS
VL: EIVLTQSPGTLSLSPGERATLSCRASQSVTSSYLAWYQQKPGQAPRLLIYGAFSRATGIPDRFSGSGSGTDFTLTISRLEPEDFAVYYCHHYGTSRWTFGQGTKVDIK
notes: full-length IgG; also called Ab 35
B4: ADI-14337 (antibody, V domains shown)
VH: EVQLVESGGGLVKPGGSLRLSCAASGFTFSSYSMNWVRQAPGKGLEWVSSISSSSSYIYYADSVKGRFTISRDNAKNSLYLQMNSLRAEDTAVYYCAREYYDSSGYTNWFDPWGQGTLVTVSS
VL: QPVLTQPPSVSGAPGQRVTISCTGSSSNIGAGYDVHWYQQLPGTAPKLLIYGNSNRPSGVPDRFSGSKSGTSASLAITGLQAEDEADYYCQSYDSSLAWVFGGGTQLTVL
notes: full-length IgG; also called Ab 5
B5: ADI-14346 (antibody, V domains shown)
VH: EVQLLESGGGLVKPGGSLRLSCAASGFRFSSYSMNWVRQAPGKWLEWVSSISASSSYTDYADSVKGRFTISRDNAKNSLYLQMNSLRAEDTAVYYCAREDYLSSGSLLHWFDPWGQGTLVTVSS
VL: B4 VL with S54N, S96R, A98S, W99V, V100L, Q106K, L107V
notes: full-length IgG; also called Ab 14
B6: ADI-19475 (antibody, V domains shown)
VH: EVQLLESGAEVKKPGASVKVTCKASGYTFTHFGINWVRQAPGQGLEWLGWISAYNGNTNYVQKIQGRVTMTTDTSTNTAYMELRSLRSDDTAVYYCARGPPVEAAGTFDYWGQGTLVTVSS
VL: DIVLTQSPLSLPVTLGQPASISCRSSQSLVYSDGNTYLTWFQQRPGQSPRRLIYKVSNRDSGVPDRFSGSGSGTDFTLQISRVEAEDVGVYYCMQGTHWPFTFGPGTKVEIK
notes: full-length IgG
B7: ADI-22757 (antibody, V domains shown)
VH: EVQLLESGAEVKKPGASVKVSCKASGYTFSNYGISWVRQAPGQGLEWMGWISVYNGNTEYAQKFQGRLTMTTDTSTSTAYMELRSLRSDDTAVYYCARDPPAVAASFMDVWGQGTTVTVSS
VL: B6 VL with D1E, Y31H, D33E, T39S, Q79K, V90L, Y92F, F101P, P105G
notes: full-length IgG
B8: ADI-19501 (antibody, V domains shown)
VH: QVQLVQSGAEVKKPGASVKVSCKASGYAFTNYGVSWVRQAPGQGLEWMGWISVYNGNTNYAQKLQGRVTMTTDTSTSTAYMELRSLRSDDTALYYCARDPPSEGAAGLFDYWGQGTLVTISS
VL: B6 VL with L4M, I21F, T39S, Q79K, F101C, P105Q
notes: full-length IgG
B9: ADI-14335 (antibody, V domains shown)
VH: EVQLVESGGGLVQPGRSLRLSCTASGFTFGDYAMSWVRQAPGKGLEWVGFIRSNAFGGTSEYAASVKGRFTISRDDSKSIAYLQMNSLKTEDTAVYYCTRDGIHDYGDSYYYYGMDVWGQGTTVTVSS
VL: DIQLTQSPSSLSASVGDRVTITCRASQTVTTYLNWYQQKPGKAPKLLIYGASSLQSGVPSRFSGSGSGTDFTLTINSLQPEDFATYYCQQTYSTVTFGPGTKVEIK
notes: full-length IgG; also called Ab 3
B10: ADI-14340 (antibody, V domains shown)
VH: EVQLVESGGGLVKPGGSLRLSCAASGFTLSSYTMNWVRQAPGRGLEWVSSIYSTSSYIYYADSVKGRFTISRDNAKNSLYLQMNSLRAEDTAVYYCARDSQAVTGTDLYFDSWGQGTLVTVSS
VL: QPGLTQPPSVSVAPGKTARITCGGNNIGRKNVHWYQQKPGQAPILVIYYDSDRPSGIPERFSGSNSGNTATLTISRVEDGDEADYYCQVWDSSNDHVIFGGGTQLTVL
notes: full-length IgG; also called Ab 8
B11: ADI-14364 (antibody, V domains shown)
VH: QVQLVQSGAEVKKPGESLKISCKGSGYSFTSHWIGWVRQMPGKGLEWMGITDPGDSDTRYSPSFQGQVTISADKSISTAYLQWSSLKASDTAMYYCAREPRRWMTTETNGPYYFDNWGQGTLVTVSS
VL: SYVLTQPPSVSVAPGKTARITCGGNNIGSKSVHWYQQKPGQAPVLVIYYDSDRPSGIPERFSGSNSGNTATLTISRVEAGDEADYYCQVWDSSSDNRVFGGGTKVTVL
notes: full-length IgG; also called Ab 32
B12: ADI-14357 (antibody, V domains shown)
VH: EVQLVESGGGVVQPGRSLRLSCAASGFTFSNYAMHWVRQAPGKGLEWVSIISYDGSNKYYADSVKGRFTISRDNSKNTLYLQINSLRTEDTAVYYCARARKRIPIVVVTAPYYYGMDVWGQGTTVTVSS
VL: DIRVTQSPSSLSASVGDRVTITCRASQSISSYLHWYQQQPGKAPNLLIYAASNLQSGVPSRFSGSGSGTDFTLTISSLQPEDFATYYCQQSYTTPHTFGQGTKVEIK
notes: full-length IgG; also called Ab 25
B13: ADI-25555 (antibody, V domains shown)
VH: QVQLVQSGGGLVKPGGSLRLSCAASGFTFSSYSMNWVRQAPGKGLEWVSSISSSSSYIYYADSVKGRFTISRDNAKNSLYLQMNSLRAEDTAVYYCARQRGGIAVAGTYFDLWGRGTLVTVSS
VL: QPVLTQPPSVSGAPGQRVTISCTGSSSNIGAGYDVHWYQQLPGTAPKLLIYGNSNRPSGVPDRFSGSKSGTSASLAITGLQAEDEADYYCQSYDSTVVFGGGTKLTVL
notes: full-length IgG
B14: ADI-14344 (antibody, V domains shown)
VH: QVQLVQSGGGLVQPGGSLRLSCAASGFTFRTYALSWVRQAPGKGLEWVSSILGSGGSTYYADSVKGRFTISRDNSKNTLYLQLNSLRAEDTAVYFCAKLAVAGLLHHYYGLDVWGQGTTVTVSS
VL: SYELTQPPSVSVSPGQTASITCSGDKLENKYACWYQQKPGQSPVLLIYQDTKRPSGIPERFSGSNSGTTATLTISGTQALDEADYYCQAWDSSTASVLFGGGTQLTVL
notes: full-length IgG; also called Ab 12
B15: ADI-22774 (antibody, V domains shown)
VH: EVQLLESGGGLVKPGGSLRLSCAASGFTFSSYSMNWVRQAPGKGLEWVSSISSSSSYIYYADSVKGRFTISRDNAKNSLYLQMNSLRAEDTAVYYCAREGASGYNYRYYFDYWGQGTLVTVSS
VL: QSVLTQPPSVSGAPGQRVTISCTGSSSNIGAGYDVHWYQQFPGAAPKLLIYGNNNRPSGVPDRFSGSKSGTSASLAITGLQADDEADYYCQSYDSSLSGYVVFGGGTKLTVL
notes: full-length IgG
B16: ADI-25549 (antibody, V domains shown)
VH: QVQLVQSGGGLVKPGGSLRLSCAASGFTFSSYSMNWVRQAPGKGLEWVSSISSSSSYIYYADSVKGRFTISRDNAKNSLYLQMNSLRAEDTAVYYCARVSSGWYGGGAYYFDYWGQGTLVTVSS
VL: B15 VL with L4V, F41L, A44T, N54S, D83E, G99A, Y100L, V101Y, G105T, L109V
notes: full-length IgG
B17: ADI-14347 (antibody, V domains shown)
VH: EVQLVESGGGLVKPGGSLRLSCAASGFTFRDYYMNWIRQAPGKGLEWVSDISASSSYTNYADSVKGRFTISRDNAKTSLYLQMNSLRAEDTAVYYCAREVVTAMGGYYFDYWGQGTLVTVSS
VL: B15 VL with L4V, F41L, A44T, D83E, Y100S, V101G, G105T, L109V
notes: full-length IgG; also called Ab 15
B18: ADI-14345 (antibody, V domains shown)
VH: QITLKESGAEVKKPGASVKVSCKVSGYTLSDFSMHWVRQAPGKGLEWMGSFDPEDGETVDAQKFQGRVTMTEDRSTATAYMELRSLRSEDTAVYYCGTPASAGQVDYWGQGTLVTVSS
VL: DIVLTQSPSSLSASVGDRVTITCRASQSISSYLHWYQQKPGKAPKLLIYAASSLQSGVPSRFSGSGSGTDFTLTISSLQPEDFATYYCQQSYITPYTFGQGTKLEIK
notes: full-length IgG; also called Ab 13

molecular target: RSV F on RSV subtype A virus (mKate-RSV A2) (respiratory syncytial virus A2, UniProt P03420 26-574); assay: cell-based or functional assay

Row | Binder | Neut IC50 subtype A
1 | B1 | 1.77 µg/mL
2 | B2 | 0.07 µg/mL
3 | B3 | 3.94 µg/mL
4 | B4 | 0.1 µg/mL
5 | B5 | 0.05 µg/mL
6 | B6 | 0.05 µg/mL
7 | B7 | 0.06 µg/mL
8 | B8 | 0.02 µg/mL
9 | B9 | 0.32 µg/mL
10 | B10 | 6.63 µg/mL
11 | B11 | 0.03 µg/mL
12 | B12 | 1.24 µg/mL
13 | B13 | 18.6 µg/mL
14 | B14 | 8.68 µg/mL
15 | B15 | 0.29 µg/mL
16 | B16 | 11.5 µg/mL
17 | B17 | 0.11 µg/mL
18 | B18 | 2.3 µg/mL

molecular target: RSV F on RSV subtype B virus (mKate-RSV B 18537) (respiratory syncytial virus B 18537, UniProt P13843 26-574); assay: cell-based or functional assay

Row | Binder | Neut IC50 subtype B
19 | B1 | 2.09 µg/mL
20 | B2 | 0.09 µg/mL
21 | B3 | 0.33 µg/mL
22 | B4 | 0.07 µg/mL
23 | B5 | 0.07 µg/mL
24 | B6 | 0.04 µg/mL
25 | B7 | 0.07 µg/mL
26 | B8 | 0.02 µg/mL
27 | B9 | 0.1 µg/mL
28 | B10 | 1.94 µg/mL
29 | B11 | 2.39 µg/mL
30 | B12 | 0.88 µg/mL
31 | B13 | 12.1 µg/mL
32 | B14 | 1.2 µg/mL
33 | B15 | 7.53 µg/mL
34 | B16 | 6.02 µg/mL
35 | B17 | 0.05 µg/mL
36 | B18 | 0.87 µg/mL

molecular target: T1, RSV postfusion F (postF), subtype A (respiratory syncytial virus subtype A, UniProt P03420 26-513); assay: BLI
T1 construct: also called Postfusion subtype A; F deltaFP

Row | Binder | binding result
37 | B1 | no binding
38 | B2 | no binding
39 | B3 | no binding
40 | B4 | no binding
41 | B5 | no binding
42 | B6 | no binding
43 | B7 | no binding
44 | B8 | no binding
45 | B9 | no binding
46 | B10 | no binding
47 | B11 | no binding
48 | B12 | no binding
49 | B13 | no binding
50 | B14 | no binding
51 | B15 | no binding
52 | B16 | no binding
53 | B17 | no binding
54 | B18 | no binding

molecular target: T2, RSV prefusion F (preF), subtype B (respiratory syncytial virus subtype B); assay: BLI, IgG
T2 construct: also called Prefusion subtype B

Row | Binder | Kd
55 | B1 | 23.4 nM
56 | B2 | 0.904 nM
57 | B3 | 0.269 nM
58 | B4 | 2.11 nM
59 | B5 | 0.925 nM
60 | B6 | 4.25 nM
61 | B7 | 0.538 nM
62 | B8 | 1.59 nM
63 | B9 | 0.889 nM
64 | B10 | 98 nM
65 | B11 | 61.6 nM
66 | B12 | 0.306 nM
67 | B13 | 44.7 nM
68 | B14 | 0.586 nM
69 | B15 | 4.28 nM
70 | B16 | 28.8 nM
71 | B17 | 2.54 nM
72 | B18 | 5.26 nM
